Assay results reported in publication PMC5626701, “Caspase-1 cleaves PPARγ for potentiating the pro-tumor action of TAMs” (Nature Communications, 2017).

Target: T1, HA-tPPARγΔ64D (THP-1) (human, UniProt P37231-2 65-477)
T1 construct: also called truncated PPARγ; source: THP-1, transfected, in cell extract; not shown: HA, C-terminal, kept
T1 sequence (looked up): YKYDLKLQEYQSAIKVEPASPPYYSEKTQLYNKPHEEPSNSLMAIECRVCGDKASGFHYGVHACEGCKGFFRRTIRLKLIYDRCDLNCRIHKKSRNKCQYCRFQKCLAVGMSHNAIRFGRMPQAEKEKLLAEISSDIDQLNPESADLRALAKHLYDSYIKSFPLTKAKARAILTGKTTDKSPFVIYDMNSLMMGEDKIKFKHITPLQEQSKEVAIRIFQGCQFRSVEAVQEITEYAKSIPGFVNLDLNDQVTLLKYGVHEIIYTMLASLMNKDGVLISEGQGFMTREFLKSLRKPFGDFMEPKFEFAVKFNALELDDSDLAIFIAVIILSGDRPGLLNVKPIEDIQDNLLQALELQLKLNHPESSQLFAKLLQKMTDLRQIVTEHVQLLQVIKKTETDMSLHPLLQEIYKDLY
Test: co-IP; THP-1 cells transfected with HA-PPARγ or HA-tPPARγΔ64D; extracts precipitated with anti-HA and blotted with anti-MCAD, or precipitated with anti-MCAD and blotted with anti-HA; blots scanned
Settings: partners not purified

- fold MCAD bound against full-length PPARγ: 8 fold
B1: medium-chain acyl-CoA dehydrogenase (MCAD), endogenous in THP-1 (enzyme, human (endogenous in THP-1), UniProt P11310 26-421, looked up)
chain: KANRQREPGLGFSFEFTEQQKEFQATARKFAREEIIPVAAEYDKTGEYPVPLIRRAWELGLMNTHIPENCGGLGLGTFDACLISEELAYGCTGVQTAIEGNSLGQMPIIIAGNDQQKKKYLGRMTEEPLMCAYCVTEPGAGSDVAGIKTKAEKKGDEYIINGQKMWITNGGKANWYFLLARSDPDPKAPANKAFTGFIVEADTPGIQIGRKELNMGQRCSDTRGIVFEDVKVPKENVLIGDGAGFKVAMGAFDKTRPVVAAGAVGLAQRALDEATKYALERKTFGKLLVEHQAISFMLAEMAMKVELARMSYQRAAWEVDSGRRNTYYASIAKAFAGDIANQLATDAVQILGGNGFNTEYPVEKLMRDAKIYQIYEGTSQIQRLIVAREHIDKYKN
notes: medium-chain acyl-CoA dehydrogenase (MCAD), mitochondrial; detected and precipitated with an anti-MCAD antibody; source: endogenous, THP-1 cell extract
